Two molecules from publication PMC3018788 (The EMBO Journal, 2010) can be followed below.

Test [1] concerns the target recombinant MBP-tagged DmPABPC1 (D. melanogaster, UniProt P21187 1-634). Put plainly: pull-down.
Test [2] deals with recombinant MBP-tagged HsPABPC1 (human, UniProt P11940 1-636). Put plainly: pull-down.
recombinant MBP-tagged HsPABPC1, sequence (P11940 whole entry): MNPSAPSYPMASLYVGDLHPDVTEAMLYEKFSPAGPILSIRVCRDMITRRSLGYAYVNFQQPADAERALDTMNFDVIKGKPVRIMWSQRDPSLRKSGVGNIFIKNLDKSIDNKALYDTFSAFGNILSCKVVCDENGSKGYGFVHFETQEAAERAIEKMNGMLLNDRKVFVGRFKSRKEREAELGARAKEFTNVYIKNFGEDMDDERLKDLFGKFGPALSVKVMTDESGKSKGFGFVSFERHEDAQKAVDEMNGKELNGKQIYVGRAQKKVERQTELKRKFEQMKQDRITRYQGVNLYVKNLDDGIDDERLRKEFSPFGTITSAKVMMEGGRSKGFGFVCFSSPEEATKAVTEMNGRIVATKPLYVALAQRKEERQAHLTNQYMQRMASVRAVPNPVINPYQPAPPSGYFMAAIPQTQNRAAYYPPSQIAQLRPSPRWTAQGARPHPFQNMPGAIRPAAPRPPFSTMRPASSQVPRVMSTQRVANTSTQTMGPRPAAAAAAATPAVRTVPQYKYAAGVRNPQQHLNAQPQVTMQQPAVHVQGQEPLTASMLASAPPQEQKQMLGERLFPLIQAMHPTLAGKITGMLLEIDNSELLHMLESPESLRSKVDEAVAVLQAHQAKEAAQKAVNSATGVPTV

recombinant MBP-tagged DmPABPC1, sequence (P21187 whole entry): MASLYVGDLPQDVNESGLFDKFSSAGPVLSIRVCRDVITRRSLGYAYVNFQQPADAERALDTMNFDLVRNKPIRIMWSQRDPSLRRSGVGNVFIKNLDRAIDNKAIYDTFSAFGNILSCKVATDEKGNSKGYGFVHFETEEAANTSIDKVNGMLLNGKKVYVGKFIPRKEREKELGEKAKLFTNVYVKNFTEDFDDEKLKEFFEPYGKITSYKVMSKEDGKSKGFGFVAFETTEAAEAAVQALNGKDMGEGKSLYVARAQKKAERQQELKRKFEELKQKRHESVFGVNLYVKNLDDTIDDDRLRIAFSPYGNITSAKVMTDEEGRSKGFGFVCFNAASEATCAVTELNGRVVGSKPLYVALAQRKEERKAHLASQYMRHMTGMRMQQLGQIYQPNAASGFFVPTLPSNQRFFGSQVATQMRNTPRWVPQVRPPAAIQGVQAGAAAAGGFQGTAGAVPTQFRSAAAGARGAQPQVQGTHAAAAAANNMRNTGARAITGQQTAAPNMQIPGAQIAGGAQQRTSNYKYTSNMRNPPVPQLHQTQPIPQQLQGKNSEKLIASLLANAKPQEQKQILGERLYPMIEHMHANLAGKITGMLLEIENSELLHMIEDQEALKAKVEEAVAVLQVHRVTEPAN

B1: GST-GW182-SD (domain or fragment, D. melanogaster, UniProt Q8SY33 937-1384, looked up)
chain: NENKDWSVAQPTSAATAYTDLVQEFEPGKPWKGSQIKSIEDDPSITPGSVARSPLSINSTPKDADIFANTGKNSPTDLPPLSLSSSTWSFNPNQNYPSHSWSDNSQQCTATSELWTSPLNKSSSRGPPPGLTANSNKSANSNASTPTTITGGANGWLQPRSGGVQTTNTNWTGGNTTWGSSWLLLKNLTAQIDGPTLRTLCMQHGPLVSFHPYLNQGIALCKYTTREEANKAQMALNNCVLANTTIFAESPSENEVQSIMQHLPQTPSSTSSSGTSGGNVGGVGTSANNANSGSAACLSGNNSGNGNGSASGAGSGNNGNSSCNNSAAGGGSSSNNTITTVANSNLVGSSGSVSNSSGVTANSSTVSVVSCTASGNSINGAGTANSSGSKSSANNLASGQSSASNLTNSTNSTWRQTSQNQALQSQSRPSGREADFDYISLVYSIVDD
For the molecule B1, the binding result in test [1] is recorded as “binds”.

B2: GST-TNRC6B-SD (domain or fragment, human, UniProt Q9UPQ9-1 1361-1723, looked up)
chain: SSNASWPPEFQPGVPWKGIQNIDPESDPYVTPGSVLGGTATSPIVDTDHQLLRDNTTGSNSSLNTSLPSPGAWPYSASDNSFTNVHSTSAKFPDYKSTWSPDPIGHNPTHLSNKMWKNHISSRNTTPLPRPPPGLTNPKPSSPWSSTAPRSVRGWGTQDSRLASASTWSDGGSVRPSYWLVLHNLTPQIDGSTLRTICMQHGPLLTFHLNLTQGTALIRYSTKQEAAKAQTALHMCVLGNTTILAEFATDDEVSRFLAQAQPPTPAATPSAPAAGWQSLETGQNQSDPVGPALNLFGGSTGLGQWSSSAGGSSGADLAGASLWGPPNYSSSLWGVPTVEDPHRMGSPAPLLPGDLLGGGSDSI
On to B2, for which, in test [2], the binding result is reported as “binds”.
